Experimental data from patent publication US20210186964.

Molecular target: Ub-AMC (ubiquitin-AMC), P0CG47
Sequence (P0CG47 whole entry, looked up): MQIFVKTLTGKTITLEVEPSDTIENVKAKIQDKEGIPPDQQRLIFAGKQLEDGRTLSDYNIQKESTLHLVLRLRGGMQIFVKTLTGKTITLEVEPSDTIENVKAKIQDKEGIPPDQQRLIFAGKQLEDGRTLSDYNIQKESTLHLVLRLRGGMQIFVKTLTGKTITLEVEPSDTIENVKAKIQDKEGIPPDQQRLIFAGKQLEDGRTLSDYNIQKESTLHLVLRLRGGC

B1: USP1/UAF1 complex (WT-USP1/UAF1) (protein)
chain 1: MPGVIPSESNGLSRGSPSKKNRLSLKFFQKKETKRALDFTDSQENEEKASEYRASEIDQVVPAAQSSPINCEKRENLLPFVGLNNLGNTCYLNSILQVLYFCPGFKSGVKHLFNIISRKKEALKDEANQKDKGNCKEDSLASYELICSLQSLIISVEQLQASFLLNPEKYTDELATQPRRLLNTLRELNPMYEGYLQHDAQEVLQCILGNIQETCQLLKKEEVKNVAELPTKVEEIPHPKEEMNGINSIEMDSMRHSEDFKEKLPKGNGKRKSDTEFGNMKKKVKLSKEHQSLEENQRQTRSKRKATSDTLESPPKIIPKYISENESPRPSQKKSRVKINWLKSATKQPSILSKFCSLGKITTNQGVKGQSKENECDPEEDLGKCESDNTTNGCGLESPGNTVTPVNVNEVKPINKGEEQIGFELVEKLFQGQLVLRTRCLECESLTERREDFQDISVPVQEDELSKVEESSEISPEPKTEMKTLRWAISQFASVERIVGEDKYFCENCHHYTEAERSLLFDKMPEVITIHLKCFAASGLEFDCYGGGLSKINTPLLTPLKLSLEEWSTKPTNDSYGLFAVVMHSGITISSGHYTASVKVTDLNSLELDKGNFVVDQMCEIGKPEPLNEEEARGVVENYNDEEVSIRVGGNTQPSKVLNKKNVEAIGLLGGQKSKADYELYNKASNPDKVASTAFAENRNSETSDTTGTHESDRNKESSDQTGINISGFENKISYVVQSLKEYEGKWLLFDDSEVKVTEEKDFLNSLSPS
chain 2: not shown
B1 was tested, and the “Km (Ub-AMC deubiquitination assay, USP1/UAF1 complex alone, no DNA)” value was “decreasing the Km from 0.79 µM to 0.33 µM” and the “Km (Ub-AMC deubiquitination assay, USP1/UAF1 complex with fork DNA)” value was “decreasing the Km from 0.79 µM to 0.33 µM”.
